Reference: patent US20260242419A1, “A CYCLIC PEPTIDE FOR TRAPPING INTERLEUKIN-1 BETA” (Merck Sharp & Dohme LLC, priority 2023, published 2026)
Starred links: 1 amine or outer side, 2 acyl side, 3 side chain; linkers in the order of their positions; H or OH if unused. Non-standard residues stand in square brackets, D forms with d. dProc3Bn4Pyrim2NMe = (2R,3S)-3-[[4-[2-(methylamino)pyrimidin-5-yl]phenyl]methyl]pyrrolidine-2-carboxylic acid, CNc1ncc(-c2ccc(C[C@H]3CCN([*:1])[C@H]3C(=O)[*:2])cc2)cn1; dProc3Bn4Pyrim = (2R,3S)-3-[(4-pyrimidin-5-ylphenyl)methyl]pyrrolidine-2-carboxylic acid, O=C([C@H]1[C@@H](Cc2ccc(-c3cncnc3)cc2)CCN1[*:1])[*:2]; TyrEtNAc = (2S)-3-[4-(2-acetamidoethoxy)phenyl]-2-amino-propanoic acid, CC(=O)NCCOc1ccc(C[C@H](N[*:1])C(=O)[*:2])cc1; dPro(4R-(4-pyridylmethyl)) = O=C(O)[C@H]1C[C@@H](Cc2ccncc2)CN1; dPro(3S-(4-Br-benzyl)) = O=C(O)[C@@H]1NCC[C@@H]1Cc1ccc(Br)cc1; Trp(βS-Me,4-F) = C[C@@H](c1c[nH]c2cccc(F)c12)[C@H](N)C(=O)O; Bip(4'-COOH) = N[C@@H](Cc1ccc(-c2ccc(C(=O)O)cc2)cc1)C(=O)O; Ala(1-bicyclo(1.1.1)pentyl) = N[C@@H](CC12CC(C1)C2)C(=O)O; dPro(4R-Bzl(4-F)) = O=C(O)[C@H]1C[C@@H](Cc2ccc(F)cc2)CN1; Ala(pyrimidin-5-yl) = N[C@@H](Cc1cncnc1)C(=O)O; Phe(4-COOH) = N[C@@H](Cc1ccc(C(=O)O)cc1)C(=O)O; Pro(cis-4-F) = O=C(O)[C@@H]1C[C@H](F)CN1; 4Pal = N[C@@H](Cc1ccncc1)C(=O)O; Cit = NC(=O)NCCC[C@H](N)C(=O)O; Dab = NCC[C@H](N)C(=O)O; Dap = NC[C@H](N)C(=O)O; Aib = CC(C)(N)C(=O)O

B1: SEQ ID NO: 52 (peptide)
peptide: cyclo([Bip(4'-COOH)][4Pal][Phe(4-COOH)]G[Pro(cis-4-F)][Trp(βS-Me,4-F)][Aib]EW[Aib][Cit]Q[Dab]G[dPro(4R-Bzl(4-F))])
SMILES: C[C@@H](c1c[nH]c2cccc(F)c12)[C@@H]1NC(=O)[C@@H]2C[C@H](F)CN2C(=O)CNC(=O)[C@H](Cc2ccc(C(=O)O)cc2)NC(=O)[C@H](Cc2ccncc2)NC(=O)[C@H](Cc2ccc(-c3ccc(C(=O)O)cc3)cc2)NC(=O)[C@H]2C[C@@H](Cc3ccc(F)cc3)CN2C(=O)CNC(=O)[C@H](CCN)NC(=O)[C@H](CCC(N)=O)NC(=O)[C@H](CCCNC(N)=O)NC(=O)C(C)(C)NC(=O)[C@H](Cc2c[nH]c3ccccc23)NC(=O)[C@H](CCC(=O)O)NC(=O)C(C)(C)NC1=O
B2: SEQ ID NO: 46 (peptide)
peptide: cyclo([Bip(4'-COOH)][Ala(1-bicyclo(1.1.1)pentyl)][Phe(4-COOH)]G[Pro(cis-4-F)][Trp(βS-Me,4-F)][Aib]EW[Aib][Ala(pyrimidin-5-yl)]Q[Dap]G[dPro(4R-(4-pyridylmethyl))])
SMILES: C[C@@H](c1c[nH]c2cccc(F)c12)[C@@H]1NC(=O)[C@@H]2C[C@H](F)CN2C(=O)CNC(=O)[C@H](Cc2ccc(C(=O)O)cc2)NC(=O)[C@H](CC23CC(C2)C3)NC(=O)[C@H](Cc2ccc(-c3ccc(C(=O)O)cc3)cc2)NC(=O)[C@H]2C[C@@H](Cc3ccncc3)CN2C(=O)CNC(=O)[C@H](CN)NC(=O)[C@H](CCC(N)=O)NC(=O)[C@H](Cc2cncnc2)NC(=O)C(C)(C)NC(=O)[C@H](Cc2c[nH]c3ccccc23)NC(=O)[C@H](CCC(=O)O)NC(=O)C(C)(C)NC1=O
B3: SEQ ID NO: 54 (peptide)
peptide: cyclo([Bip(4'-COOH)][4Pal][Phe(4-COOH)]G[Pro(cis-4-F)][Trp(βS-Me,4-F)][Aib]EW[Aib][Ala(pyrimidin-5-yl)]Q[Dab]G[dProc3Bn4Pyrim2NMe])
SMILES: CNc1ncc(-c2ccc(C[C@H]3CCN4C(=O)CNC(=O)[C@H](CCN)NC(=O)[C@H](CCC(N)=O)NC(=O)[C@H](Cc5cncnc5)NC(=O)C(C)(C)NC(=O)[C@H](Cc5c[nH]c6ccccc56)NC(=O)[C@H](CCC(=O)O)NC(=O)C(C)(C)NC(=O)[C@H]([C@@H](C)c5c[nH]c6cccc(F)c56)NC(=O)[C@@H]5C[C@H](F)CN5C(=O)CNC(=O)[C@H](Cc5ccc(C(=O)O)cc5)NC(=O)[C@H](Cc5ccncc5)NC(=O)[C@H](Cc5ccc(-c6ccc(C(=O)O)cc6)cc5)NC(=O)[C@@H]34)cc2)cn1
B4: SEQ ID NO: 5 (peptide)
peptide: cyclo([Bip(4'-COOH)][4Pal][Phe(4-COOH)]G[Pro(cis-4-F)][Trp(βS-Me,4-F)][Aib]SW[Aib]SQ[Dab]G[dPro(4R-Bzl(4-F))])
SMILES: C[C@@H](c1c[nH]c2cccc(F)c12)[C@@H]1NC(=O)[C@@H]2C[C@H](F)CN2C(=O)CNC(=O)[C@H](Cc2ccc(C(=O)O)cc2)NC(=O)[C@H](Cc2ccncc2)NC(=O)[C@H](Cc2ccc(-c3ccc(C(=O)O)cc3)cc2)NC(=O)[C@H]2C[C@@H](Cc3ccc(F)cc3)CN2C(=O)CNC(=O)[C@H](CCN)NC(=O)[C@H](CCC(N)=O)NC(=O)[C@H](CO)NC(=O)C(C)(C)NC(=O)[C@H](Cc2c[nH]c3ccccc23)NC(=O)[C@H](CO)NC(=O)C(C)(C)NC1=O
B5: SEQ ID NO: 45 (peptide)
peptide: cyclo([Bip(4'-COOH)][Ala(1-bicyclo(1.1.1)pentyl)][Phe(4-COOH)]G[Pro(cis-4-F)][Trp(βS-Me,4-F)][Aib]EW[Aib][4Pal]Q[Dab]G[dPro(4R-(4-pyridylmethyl))])
SMILES: C[C@@H](c1c[nH]c2cccc(F)c12)[C@@H]1NC(=O)[C@@H]2C[C@H](F)CN2C(=O)CNC(=O)[C@H](Cc2ccc(C(=O)O)cc2)NC(=O)[C@H](CC23CC(C2)C3)NC(=O)[C@H](Cc2ccc(-c3ccc(C(=O)O)cc3)cc2)NC(=O)[C@H]2C[C@@H](Cc3ccncc3)CN2C(=O)CNC(=O)[C@H](CCN)NC(=O)[C@H](CCC(N)=O)NC(=O)[C@H](Cc2ccncc2)NC(=O)C(C)(C)NC(=O)[C@H](Cc2c[nH]c3ccccc23)NC(=O)[C@H](CCC(=O)O)NC(=O)C(C)(C)NC1=O
B6: SEQ ID NO: 53 (peptide)
peptide: cyclo([Bip(4'-COOH)][4Pal][Phe(4-COOH)]G[Pro(cis-4-F)][Trp(βS-Me,4-F)][Aib]EW[Aib][Ala(pyrimidin-5-yl)]Q[Dab]G[dProc3Bn4Pyrim])
SMILES: C[C@@H](c1c[nH]c2cccc(F)c12)[C@@H]1NC(=O)[C@@H]2C[C@H](F)CN2C(=O)CNC(=O)[C@H](Cc2ccc(C(=O)O)cc2)NC(=O)[C@H](Cc2ccncc2)NC(=O)[C@H](Cc2ccc(-c3ccc(C(=O)O)cc3)cc2)NC(=O)[C@H]2[C@@H](Cc3ccc(-c4cncnc4)cc3)CCN2C(=O)CNC(=O)[C@H](CCN)NC(=O)[C@H](CCC(N)=O)NC(=O)[C@H](Cc2cncnc2)NC(=O)C(C)(C)NC(=O)[C@H](Cc2c[nH]c3ccccc23)NC(=O)[C@H](CCC(=O)O)NC(=O)C(C)(C)NC1=O
B7: SEQ ID NO: 49 (peptide)
peptide: cyclo([TyrEtNAc][4Pal][Phe(4-COOH)]G[Pro(cis-4-F)][Trp(βS-Me,4-F)][Aib]EW[Aib][Ala(pyrimidin-5-yl)]Q[Dab]G[dPro(4R-(4-pyridylmethyl))])
SMILES: CC(=O)NCCOc1ccc(C[C@@H]2NC(=O)[C@H]3C[C@@H](Cc4ccncc4)CN3C(=O)CNC(=O)[C@H](CCN)NC(=O)[C@H](CCC(N)=O)NC(=O)[C@H](Cc3cncnc3)NC(=O)C(C)(C)NC(=O)[C@H](Cc3c[nH]c4ccccc34)NC(=O)[C@H](CCC(=O)O)NC(=O)C(C)(C)NC(=O)[C@H]([C@@H](C)c3c[nH]c4cccc(F)c34)NC(=O)[C@@H]3C[C@H](F)CN3C(=O)CNC(=O)[C@H](Cc3ccc(C(=O)O)cc3)NC(=O)[C@H](Cc3ccncc3)NC2=O)cc1
B8: SEQ ID NO: 47 (peptide)
peptide: cyclo([Bip(4'-COOH)][4Pal][Phe(4-COOH)]G[Pro(cis-4-F)][Trp(βS-Me,4-F)][Aib]EW[Aib][4Pal]Q[Dap]G[dPro(4R-(4-pyridylmethyl))])
SMILES: C[C@@H](c1c[nH]c2cccc(F)c12)[C@@H]1NC(=O)[C@@H]2C[C@H](F)CN2C(=O)CNC(=O)[C@H](Cc2ccc(C(=O)O)cc2)NC(=O)[C@H](Cc2ccncc2)NC(=O)[C@H](Cc2ccc(-c3ccc(C(=O)O)cc3)cc2)NC(=O)[C@H]2C[C@@H](Cc3ccncc3)CN2C(=O)CNC(=O)[C@H](CN)NC(=O)[C@H](CCC(N)=O)NC(=O)[C@H](Cc2ccncc2)NC(=O)C(C)(C)NC(=O)[C@H](Cc2c[nH]c3ccccc23)NC(=O)[C@H](CCC(=O)O)NC(=O)C(C)(C)NC1=O
B9: SEQ ID NO: 50 (peptide)
peptide: cyclo([TyrEtNAc][Ala(1-bicyclo(1.1.1)pentyl)][Phe(4-COOH)]G[Pro(cis-4-F)][Trp(βS-Me,4-F)][Aib]EW[Aib][Ala(pyrimidin-5-yl)]Q[Dab]G[dPro(4R-(4-pyridylmethyl))])
SMILES: CC(=O)NCCOc1ccc(C[C@@H]2NC(=O)[C@H]3C[C@@H](Cc4ccncc4)CN3C(=O)CNC(=O)[C@H](CCN)NC(=O)[C@H](CCC(N)=O)NC(=O)[C@H](Cc3cncnc3)NC(=O)C(C)(C)NC(=O)[C@H](Cc3c[nH]c4ccccc34)NC(=O)[C@H](CCC(=O)O)NC(=O)C(C)(C)NC(=O)[C@H]([C@@H](C)c3c[nH]c4cccc(F)c34)NC(=O)[C@@H]3C[C@H](F)CN3C(=O)CNC(=O)[C@H](Cc3ccc(C(=O)O)cc3)NC(=O)[C@H](CC34CC(C3)C4)NC2=O)cc1
B10: SEQ ID NO: 43 (peptide)
peptide: cyclo([Bip(4'-COOH)][Ala(1-bicyclo(1.1.1)pentyl)][Phe(4-COOH)]G[Pro(cis-4-F)][Trp(βS-Me,4-F)][Aib]EW[Aib][Ala(pyrimidin-5-yl)]Q[Dab]G[dPro(4R-(4-pyridylmethyl))])
SMILES: C[C@@H](c1c[nH]c2cccc(F)c12)[C@@H]1NC(=O)[C@@H]2C[C@H](F)CN2C(=O)CNC(=O)[C@H](Cc2ccc(C(=O)O)cc2)NC(=O)[C@H](CC23CC(C2)C3)NC(=O)[C@H](Cc2ccc(-c3ccc(C(=O)O)cc3)cc2)NC(=O)[C@H]2C[C@@H](Cc3ccncc3)CN2C(=O)CNC(=O)[C@H](CCN)NC(=O)[C@H](CCC(N)=O)NC(=O)[C@H](Cc2cncnc2)NC(=O)C(C)(C)NC(=O)[C@H](Cc2c[nH]c3ccccc23)NC(=O)[C@H](CCC(=O)O)NC(=O)C(C)(C)NC1=O

Target: Recombinant human IL-1β (BioLegend 579404) (human, UniProt P01584 117-269)
Assay: cell-based or functional assay

Row | MRC5 IC50 [nM] | Binder
1 | 0.021 | B1
2 | 0.034 | B2
3 | 0.021 | B3
4 | 0.039 | B4
5 | 0.014 | cyclo([Bip(4'-COOH)][4Pal][Phe(4-COOH)]G[Pro(cis-4-F)][Trp(βS-Me,4-F)][Aib]EW[Aib][Ala(pyrimidin-5-yl)]Q[Dab]G[dPro(3S-(4-Br-benzyl))]) [SEQ ID NO: 51]
6 | 0.027 | cyclo([Bip(4'-COOH)][Ala(1-bicyclo(1.1.1)pentyl)][Phe(4-COOH)]G[Pro(cis-4-F)][Trp(βS-Me,4-F)][Aib]EW[Aib][4Pal]Q[Dap]G[dPro(4R-(4-pyridylmethyl))]) [SEQ ID NO: 48]
7 | 0.027 | B5
8 | 0.018 | B6
9 | 0.047 | B7
10 | 0.029 | B8
11 | 0.021 | cyclo([Bip(4'-COOH)][Ala(1-bicyclo(1.1.1)pentyl)][Phe(4-COOH)]G[Pro(cis-4-F)][Trp(βS-Me,4-F)][Aib]SW[Aib][Ala(pyrimidin-5-yl)]Q[Dab]G[dPro(4R-(4-pyridylmethyl))]) [SEQ ID NO: 44]
12 | 0.044 | B9
13 | 0.026 | B10
